Experimental data: publication PMC6881172, “Allosteric modulation of nucleoporin assemblies by intrinsically disordered regions” (Science Advances, 2019)
Several values for one entry are separate records, joined by “and”; a condition that tells them apart may be missing. Equal values may be shown once. Each block holds one molecule with its values, some of them ahead of it.

T1: Nup53 fragment 53NTD (N-terminal IDR) (Saccharomyces cerevisiae)
T1 chain: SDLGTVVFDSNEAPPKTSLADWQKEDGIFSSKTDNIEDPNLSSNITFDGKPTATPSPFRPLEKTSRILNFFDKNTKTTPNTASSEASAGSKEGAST

T2: Kap121 (full-length) (Saccharomyces cerevisiae, UniProt P32337 1-1089)
T2 construct: Kap121 (karyopherin), Saccharomyces cerevisiae, full-length; source: E. coli BL21-CodonPlus(DE3)-RIL, purified (HisTrap HP, TEV cleavage, HiTrap Q, Superdex 200); not shown: SUMO-His6, N-terminal, cleaved
T2 sequence (looked up): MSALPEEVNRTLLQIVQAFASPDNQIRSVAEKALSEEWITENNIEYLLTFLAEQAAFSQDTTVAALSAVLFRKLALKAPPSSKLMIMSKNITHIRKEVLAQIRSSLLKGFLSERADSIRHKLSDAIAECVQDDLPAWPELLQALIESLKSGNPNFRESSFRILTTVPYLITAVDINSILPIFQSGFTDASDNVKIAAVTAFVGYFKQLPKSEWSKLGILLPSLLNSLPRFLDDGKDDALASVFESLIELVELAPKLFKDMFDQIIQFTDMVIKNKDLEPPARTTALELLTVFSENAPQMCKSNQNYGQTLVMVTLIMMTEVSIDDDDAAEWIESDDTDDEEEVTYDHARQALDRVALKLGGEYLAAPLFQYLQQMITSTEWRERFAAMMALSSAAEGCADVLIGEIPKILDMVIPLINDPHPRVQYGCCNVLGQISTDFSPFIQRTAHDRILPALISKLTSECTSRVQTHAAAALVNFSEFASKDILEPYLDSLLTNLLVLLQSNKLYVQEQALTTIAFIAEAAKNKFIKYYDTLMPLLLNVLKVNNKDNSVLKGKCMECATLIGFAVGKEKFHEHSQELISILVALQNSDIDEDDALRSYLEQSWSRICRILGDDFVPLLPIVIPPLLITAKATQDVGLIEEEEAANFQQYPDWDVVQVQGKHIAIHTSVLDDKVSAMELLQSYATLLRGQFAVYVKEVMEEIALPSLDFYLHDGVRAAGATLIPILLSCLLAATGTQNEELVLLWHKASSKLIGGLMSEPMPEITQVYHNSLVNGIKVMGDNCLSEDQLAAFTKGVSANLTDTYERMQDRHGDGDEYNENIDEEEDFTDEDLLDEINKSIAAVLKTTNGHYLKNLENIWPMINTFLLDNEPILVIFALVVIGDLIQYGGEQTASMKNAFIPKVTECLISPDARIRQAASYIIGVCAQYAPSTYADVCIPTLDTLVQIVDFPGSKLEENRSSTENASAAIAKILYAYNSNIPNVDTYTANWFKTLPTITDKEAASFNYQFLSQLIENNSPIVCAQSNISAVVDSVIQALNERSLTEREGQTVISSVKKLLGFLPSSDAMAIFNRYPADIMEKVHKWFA

T3: Kap121 (full-length) (Saccharomyces cerevisiae), P32337
T3 chain: T2 sequence (looked up)

B1: Nup157 fragment 157N (domain or fragment)
chain: MYSTPLKKRIDYDRETFTASASLGGNRLRNRPRDDQNNGKPNLSSRSFLSERKTRKDVLNKYGEAGNTIESELRDVTTHVKISGLTSSEPLQLASEFVQDLSFRDRNTPILDNPDYYSKGLDYNFSDEVGGLGAFTPFQRQQVTNIPDEVLSQVSNTEIKSDMGIFLELNYCWITSDNKLILWNINNSSEYHCIDEIEHTILKVKLVKPSPNTFVSSVENLLIVATLFDIYILTISFNDRTHELNIFNTGLKVNVTGFNVSNIISYERTGQIFFTGATDGVNVWELQYNCSENLFNSKSNKICLTKSNLANLLPTKLIPSIPGGKLIQKVLEGDAGTEEETISQLEVDQSRGVLHTLSTKSIVRSYLITSNGLVGPVLIDAAHIRRGMNALGVKNSPLLSNRAFKIAKIVSISMCENNDLFLAVITTTGVRLYFKGSISRRSIGSLKLDSVKFPPTSISSSLEQNKSFIIGHHPLNTHDTGPLSTQKASSTYINTTCASTIISPGIYFTCVRKRANSGELSKGITNKALLENKEEHKLYVSAPDYGILKNYGKYVENTALLDTTDEIKEIVPLTRSFNYTSTPQGYANVFASQYSAEPLKVAVLTSNALEIYCYRTPDEVFESLIENPLPFIHSYGLSEACSTALYLACKFNKSEHIKSSALAFFSAGIPGVVEIKPKSSRESGSVPPISQNLFDKSGECDGIVLSPRFYGSALLITRLFSQIWEERVFVFKRASKTEKMDAFGISITRPQVEYYLSSISVLADFFNIHRPSFVSFVPPKGSNAITASDAESIAMNALILLINSIKDALSLINVFYEDIDAFKSLLNTLMGAGGVYDSKTREYFFDLKFHDLFTPNAKTKQLIKEILIEVVNANIASGTSADYIVNVLKERFG
B2: Nic96 fragment (domain or fragment)
chain: GNNILNSNESRLNVNENNILREKFENYARIVFQFNNSRQANGNFDIANEFISILSSANGTRNAQLLESWKILESMKSKDINIVEVGKQYLEQQFLQYTDNLYKKNMNEGLATNVNKIKSFIDTKLKKADKSWKISNLTVINGVPIWALIFYLLRAGLIKEALQVLVENKANIKKVEQSFLTYFKAYASSKDHGLPVEYSTKLHTEYNQHIKSSLDGDPYRLAVYKLIGRCDLSRKNIPAVTLSIEDWLWMHLMLIKEKDAENDPVYERYSLEDFQNIIISYGPSRFSNYYLQTLLLSGLYGLAIDYTYTFSEMDAVHLAIGLASLKLFKIDSSTRLTKKPKRDIRFANILANYTKSFRYSDPRVAVEYLVLITLNEGPTDVELCHEALRELVLETKEFTVLLGKIGRDGARIPGVIEERQPLLHVRDEKEFLHTITEQAARRADEDGRIYDSILLYQLAEEYDIVITLVNSLLSDTLSASDLDQPLVGPDDNSETNPVLLARRMASIYFDNAGISRQIHVKNKEICMLLLNISSIRELYFNKQWQETLSQMELLDLLPFSDELSARKKAQDFSNLDDNIVKNIPNLLIITLSCISNMIHILNESKYQSSTKGQQIDSLKNVARQCMIYAGMIQYRMPRETYSTLINIDVSL
B3: Nup53 fragment 53CTD (domain or fragment)
chain: RNAEFKVSKNSTSFKNPRRLEIKDGRSLFLRNRGKIHS
B4: Nup53 C-terminal IDR (53C) (domain or fragment)
chain: KKSEEIINNKTSSQTSLSSKDLSNYRKTEGIFEKAKAKAVTSKVRNAEFKVSKNSTSFKNPRRLEIKDGRSLFLRNRGKIHS
modifications: not checked
B5: Nup53 53core (near-intact Nup53 construct encompassing the N- and C-terminal IDRs and the RRM domain) (domain or fragment)
chain: SDLGTVVFDSNEAPPKTSLADWQKEDGIFSSKTDNIEDPNLSSNITFDGKPTATPSPFRPLEKTSRILNFFDKNTKTTPNTASSEASAGSKEGASTNWDDHAIIIFGYPETIANSIILHFANFGEILEDFRVIKDFKKLNSKNMSKSPSLTAQKYPIYTGDGWVKLTYKSELSKSRALQENGIIMNGTLIGCVSYSPAALKQLASLKKSEEIINNKTSSQTSLSSKDLSNYRKTEGIFEKAKAKAVTSKVRNAEFKVSKNSTSFKNPRRLEIKDGRSLFLRNRGKIHS

Columns and labels:
[1] = target: human Nup35 RRM domain (human); assay: SEC-MALS; human Nup35 RRM domain at 15 mg/ml on Superdex 200 10/300 GL in the ITC binding buffer, room temperature
Nup53 fragment 53CTD = target: B3; assay: ITC; single titrations, single-site 1:1 binding model where fitted; 20 mM Hepes pH 7.5, 150 mM NaCl, 0.5 mM TCEP; 15°C; Kap121 150 μM with Nup53 fragments 15 μM; conditions: both partners purified
[2] = target: B5; assay: as above; conditions: both partners purified
[3] = target: T1, Nup53 fragment 53NTD (N-terminal IDR); assay: as above; conditions: both partners purified
[4] = target: T4, 53core·Kap121 complex (stoichiometric 53core:Kap121 mixture) (Saccharomyces cerevisiae, UniProt Q03790 1-475; P32337 1-1089); assay: ITC; Nic96 titrations into 53core:Kap121 mixtures, global analysis with a multiple-equilibrium model that separates monomeric and dimeric 53core·Kap121 complexes; 15°C; conditions: both partners purified
[5] = target: T4, 53core·Kap121 complex (stoichiometric …); assay: ITC; Nic96 titrated into stoichiometric 53core:Kap121 or 53core:HsKapβ1 mixtures; single-site 1:1 model; apparent constants; 15°C; conditions: both partners purified
[6] = target: 53core·HsKapβ1 complex (stoichiometric 53core:HsKapβ1 mixture) (Saccharomyces cerevisiae | human, UniProt Q03790 1-475; Q14974 1-876); assay: as above; conditions: both partners purified
Kap121 (full-length) [7] = target: T2, Kap121 (full-length); assay: ITC; single titrations, single-site 1:1 binding model where fitted; 20 mM Hepes pH 7.5, 150 mM NaCl, 0.5 mM TCEP; 15°C; Kap121 150 μM with Nup53 fragments 15 μM; conditions: both partners purified
[8] = target: T3, Kap121 (full-length) (Saccharomyces …); assay: ITC; 53C·Kap121 forward and reverse titrations at various protein concentrations, global analysis with a two-mode binding model (1:1 and 2:1 53C:Kap121); 20 mM Hepes pH 7.5, 150 mM NaCl, 0.5 mM TCEP; 15°C
Kap121 (full-length) [9] = target: T2, Kap121 (full-length); assay: ITC; forward and reverse titrations with Kap121 at various protein concentrations, global analysis with a multiple-equilibrium model (53core dimerization, monomer constants fixed at the 53C values); 15°C; conditions: both partners purified
[10] = target: the molecule itself; assay: ITC; dimer to monomers: concentrated 53core injected in 2-μl increments into buffer, three protein concentrations, monomer-dimer equilibrium model; constant printed for 2A ↔ A2; 15°C
[11] = target: the molecule itself; assay: as above; remark: listed apart in the source

Chain of 53core·HsKapβ1 complex (stoichiometric 53core:HsKapβ1 mixture) (Q14974 1-442, one chain of several): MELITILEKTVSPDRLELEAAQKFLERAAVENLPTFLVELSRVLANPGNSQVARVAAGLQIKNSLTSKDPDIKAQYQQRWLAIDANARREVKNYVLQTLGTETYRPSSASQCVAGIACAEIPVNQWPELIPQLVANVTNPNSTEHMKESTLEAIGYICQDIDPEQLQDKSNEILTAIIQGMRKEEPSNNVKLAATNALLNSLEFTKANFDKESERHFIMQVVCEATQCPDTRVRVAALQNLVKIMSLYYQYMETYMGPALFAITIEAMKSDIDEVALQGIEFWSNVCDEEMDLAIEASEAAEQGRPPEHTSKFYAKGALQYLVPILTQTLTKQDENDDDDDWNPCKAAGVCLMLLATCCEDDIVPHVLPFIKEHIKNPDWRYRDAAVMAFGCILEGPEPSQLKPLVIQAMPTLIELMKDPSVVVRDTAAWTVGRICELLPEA

- stoichiometry N [1]: 2
Molecule: human Nup35 RRM domain (domain or fragment)

Molecule: B1
- Ka (Nup53 fragment 53CTD): 1.6e+06 M⁻¹
- stoichiometry N (Nup53 fragment 53CTD): 1
- Ka [2]: 1.1e+06 M⁻¹
- dH [2]: -10.1 kcal/mol

Molecule: B2
- Ka [3]: 700000 M⁻¹
- stoichiometry N [3]: 1
- KA for the dimeric 53core·Kap121 complexes (A2Bi + C ↔ A2BiC) [4]: 120000 M⁻¹
- KA for the monomeric 53core·Kap121 complex (AB + C ↔ ABC) [4]: 200000 M⁻¹
- dH for the dimeric 53core·Kap121 complexes (A2Bi + C ↔ A2BiC) [4]: -2.5 kcal/mol
- dH for the monomeric 53core·Kap121 complex (AB + C ↔ ABC) [4]: -6.7 kcal/mol
- Ka [2]: 990000 M⁻¹
- dH [2]: -4.4 kcal/mol
- Ka [5]: 130000 M⁻¹
- dH [5]: -5.2 kcal/mol
- Ka [6]: 100000 M⁻¹
- dH [6]: -5.1 kcal/mol

Molecule: B3
- Ka (Kap121 (full-length) [7]): 210000 M⁻¹
- fold weaker than the canonical NLS peptide (Kap121 (full-length) [7]): ~45 fold
- stoichiometry N (Kap121 (full-length) [7]): 1

Molecule: B4
- K of the 2:1 mode (2A + B ↔ A2*B) [8]: 1.9e+11 M^-2
- KA of the 1:1 mode (A + B ↔ AB) [8]: 4.2e+06 M⁻¹
- KA per IDR binding (square root of the 2:1 constant) [8]: 440000 M⁻¹
- dH of the 1:1 mode (A + B ↔ AB) [8]: -2.7 kcal/mol
- dH of the 2:1 mode (2A + B ↔ A2*B) [8]: 4.2 kcal/mol
- stoichiometry N [8]: 2 and 1

Molecule: B5
- KA of the 53core dimer with one Kap121 (A2 + B ↔ A2B) (Kap121 (full-length) [9]): 5.6e+07 M⁻¹
- dH of A2 + 2B ↔ A2B2 (Kap121 (full-length) [9]): -1.3 kcal/mol
- dH of A2 + B ↔ A2B (Kap121 (full-length) [9]): 16.3 kcal/mol
- stoichiometry N [10]: 2
- Ka [11]: 10000 M⁻¹
- dH [11]: 6.5 kcal/mol
